In the FLAb antibody collection (doi:10.1101/2023.12.08.570889):
Residue numbers refer to the chain shown, from its start.

B1: unnamed (protein)
chain 1: QVQLVQSGAEVKKPGASVKVSCKASGYIFSNYWIQWVRQAPGQGLEWMGEILPGSGSTEYTENFKDRVTMTRDTSTSTVYMELSSLRSEDTAVYYCARDRFDVASGSSFDFWGQGTLVTVSS
chain 2: DIQMTQSPSSLSASVGDRVTITCGASENIYGALNWYQQKPGKAPKLLIYGATNLADGVPSRFSGSGSGTDFTLTISSLQPEDFATYYCQNVLNTPLTFGQGTKVEIK
B2: unnamed (protein)
chain 1: QVQLVQSGAEVKKPGASVKVSCKASGYIFSNYWIQWVRQAPGQGLEWMGEILPGSGSTEYTENFKDRVTMTRDTSTSTVYMELSSLRSEDTAVYYCARYYYGDTPTIYFDYWGQGTLVTVSS
chain 2: B1 chain 2
B3: unnamed (protein)
chain 1: B2 chain 1 with Y99L, Y100R, Y101W, T106I
chain 2: B1 chain 2
B4: unnamed (protein)
chain 1: B2 chain 1 with Y101W, T106Y
chain 2: B1 chain 2
B5: unnamed (protein)
chain 1: B1 chain 1 with F101S, D102Y, V103G, A104D, G106S, S107W, S108A, F109L, F111A
chain 2: B1 chain 2
B6: unnamed (protein)
chain 1: B2 chain 1 with Y99L, Y100R
chain 2: B1 chain 2
B7: unnamed (protein)
chain 1: B2 chain 1 with Y100R, T106Y
chain 2: B1 chain 2
B8: unnamed (protein)
chain 1: B2 chain 1 with Y100R, T106F
chain 2: B1 chain 2
B9: unnamed (protein)
chain 1: B2 chain 1 with Y100R
chain 2: B1 chain 2
B10: unnamed (protein)
chain 1: B2 chain 1 with Y99L, Y100R, T106F
chain 2: B1 chain 2
B11: unnamed (protein)
chain 1: B2 chain 1 with Y100R, Y101W, T106I
chain 2: B1 chain 2
B12: unnamed (protein)
chain 1: B2 chain 1 with Y99F, Y100R, T106I
chain 2: B1 chain 2
B13: unnamed (protein)
chain 1: B2 chain 1 with T106F
chain 2: B1 chain 2
B14: unnamed (protein)
chain 1: B2 chain 1 with Y99L, T106Y
chain 2: B1 chain 2
B15: unnamed (protein)
chain 1: B2 chain 1 with Y101W, T106I
chain 2: B1 chain 2
B16: unnamed (protein)
chain 1: B2 chain 1 with Y100R, Y101W, T106Y
chain 2: B1 chain 2
B17: unnamed (protein)
chain 1: QVQLVQSGAEVKKPGASVKVSCKASGYTFTSSYINWVRQAPGQGLEWMGTINPVTGNTSYAQKFQGRVTMTRDTSISTAYMELSRLRSDDTAVYYCARGGYFDYWGQGTLVTVSS
chain 2: QSALTQPASVSGSPGQSITISCTGTSSDVGSYNYVNWYQQHPGKAPKLMIYGVSKRPSGVSNRFSGSKSGNTASLTISGLQAEDEADYYCGTFAGGSYYGVFGGGTKLTVL
B18: unnamed (protein)
chain 1: B17 chain 1 with Y33G, G100N, F102M
chain 2: B17 chain 2
B19: unnamed (protein)
chain 1: B17 chain 1 with S32T
chain 2: B17 chain 2

Tests used:
C5, P01031 = assay: Kd (SPR)
ACVR2B, Q13705 = assay: Kd (SPR)
Chain of ACVR2B, Q13705 (Q13705 whole entry, looked up): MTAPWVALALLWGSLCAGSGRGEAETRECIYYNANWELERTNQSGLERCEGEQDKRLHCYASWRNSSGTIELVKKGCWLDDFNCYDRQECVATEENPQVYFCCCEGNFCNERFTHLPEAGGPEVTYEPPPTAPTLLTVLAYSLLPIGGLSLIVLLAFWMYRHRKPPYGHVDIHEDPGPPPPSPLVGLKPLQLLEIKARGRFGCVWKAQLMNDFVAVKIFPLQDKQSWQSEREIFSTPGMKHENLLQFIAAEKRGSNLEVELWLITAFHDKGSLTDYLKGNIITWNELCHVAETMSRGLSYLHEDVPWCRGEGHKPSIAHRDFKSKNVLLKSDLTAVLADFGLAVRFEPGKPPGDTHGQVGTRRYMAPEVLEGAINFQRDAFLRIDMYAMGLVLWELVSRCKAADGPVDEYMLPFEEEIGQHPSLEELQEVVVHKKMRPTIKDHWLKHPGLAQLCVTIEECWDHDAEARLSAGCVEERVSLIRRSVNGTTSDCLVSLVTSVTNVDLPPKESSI

| Binder | Kd (C5, P01031) [nM] | Kd (ACVR2B, Q13705) [nM] |
| --- | --- | --- |
| B1 | 325 | – |
| B2 | 111 | – |
| B3 | 749 | – |
| B4 | 204 | – |
| B5 | 3980 | – |
| B6 | 469 | – |
| B7 | 583 | – |
| B8 | 385 | – |
| B9 | 689 | – |
| B10 | 937 | – |
| B11 | 502 | – |
| B12 | 280 | – |
| B13 | 96.3 | – |
| B14 | 492 | – |
| B15 | 162 | – |
| B16 | 850 | – |
| B17 | – | 10.3 |
| B18 | – | 0.581 |
| B19 | – | 7.87 |
